Source: the nanobody polyreactivity screen of Harvey et al. (2022)

Test: yeast display, Sf9 membrane polyspecificity reagent, FACS + sequencing; frameworks hold sequencing errors
In short: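 Galactose induction of a Saccharomyces cerevisiae BJ5465 synthetic nanobody display library ran 36–48 hours. The cells were then stained for 1 hour at 4 °C with 10% biotinylated, detergent-solubilized Sf9 membrane reagent, pulled down on streptavidin microbeads and FACS-sorted into low and high (top ~1%) gates on expression and reagent-binding fluorescence. Labels for polyreactivity follow the gate of origin.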

| Sequence | polyreactivity (PSR sort gate) |
| --- | --- |
| QVQLVESGGGLVQAGGSLRLSCAASGRIFQYYAMGWYRQAPGKERELVAAISRGGSTNYADSVKGRFTISRDNAKNTVYLQMNSLKPEDTAVYFCAADEYRYYFYRAGIGFDYWGQGTQVTVSS | low polyreactivity |
| QVQLVESGGGLVQAGGSLRLSCAASGRIFQYYAMGWYRQAPGKERELVAAISRTGSTYYADSVKGRFTISRDNGKNTVYLQMNRLNPEDTAVYYCAADYWPQSNRWVYFRYGYWGQGTQVTVSS | high polyreactivity |
| QVQLVESGGGLVQAGGSLRLSCAASGRIFQYYTMGWYRQAPGKERELVAAISYGGGSTYYADSVKGRFTISRDHAKNTVYLQMNSLKPEDTAVYYCNAVTYSRRYAYYYWGQGTQVTVSS | high polyreactivity |
| QVQLVESGGGLVQAGGSLRLSCAASGRIFQYYTMGWYRQAPGKERELVAAITWSSSRTYYADSVKGRVTISRDNAKNTVYLQMNSLKPEDTAVNYCAAEAQAAWNDYTYWGQGTQVTVSS | high polyreactivity |
| QVQLVESGGGLVQAGGSLRLSCAASGRIFRANAMGWYRQAPGKERELVAAISYRGGSTYYADSVKGRFTISRDNAKNTVYLQMNSLKPEDTAVYYCAADSDRSVWIYGYWGQGTQVTVSS | low polyreactivity |
| QVQLVESGGGLVQAGGSLRLSCAASGRIFRAYAMGWYRQAPGKEREFVAAITWSGGSTYYADSVKGRFTISRDNAKNTVYLQMNSLKPEDTAVYYCAARGYSYRRRSQQFDYWGQGTQVTVSS | high polyreactivity |
| QVQLVESGGGLVQAGGSLRLSCAASGRIFRAYAMGWYRQAPGKERELVAVITGSGGSTYYADSVKGRFTISRDNAKNTVYLQMNSLKPEDTAVYYCAAPVHTASGRWVPGYYYWGQGTQVTVSS | high polyreactivity |
| QVQLVESGGGLVQAGGSLRLSCAASGRIFRAYAMGWYRQAPRKERELVAAISYRGGSTYYADSVKGRFTISRDNAKNTVYLQMNSLKPEDTAVYDCAADSDRSVWIYGYWGQGTQVTVSS | low polyreactivity |
| QVQLVESGGGLVQAGGSLRLSCAASGRIFRDNAMGGYRQAPGKERELVASISSRTGRTYYADSVKGRFTISRDNAKNTVYLQMNSLKPEDTAVYYCAAAFIYRGPGSLKFDYWGQGTQVTVSS | low polyreactivity |
| QVQLVESGGGLVQAGGSLRLSCAASGRIFRDYAMGWYRQAPGKERELVAAITGSGGRTYYADSVKGRFTISRDTAKNTVYLQMNSLKPEDTAVYYCAAYLGRRGQEMDYWGQGTQVTVSS | high polyreactivity |
| QVQLVESGGGLVQAGGSLRLSCAASGRIFRENAMGWYRQAPGKERELVAAISSGGSTYYADSVKGRFTISRDNAKNTVYLQMNSLKPEDTAVYYCAADLSWSRVVFGDYDYWGQGTQVTVSS | low polyreactivity |
| QVQLVESGGGLVQAGGSLRLSCAASGRIFRENAMGWYRQAPGKERELVASNSLSGTSTYYADSVKGRFTISRDNAKNTVYLQMNSLKPEDTAVYYCNGERLSTDPYDRNYWGQGTQVTVSS | low polyreactivity |
| QVQLVESGGGLVQAGGSLRLSCAASGRIFRFNAMGWYRQAPGKERELVAAITGSGGTTFYADSVKGRFTISRDNAKNTVYLQMNSLKPEDTAVYYCITLGNWRPVYNQPRYEYWGQGTQVTVSS | high polyreactivity |
| QVQLVESGGGLVQAGGSLRLSCAASGRIFRFYDMGWYRQAPVKESELVASISSTGGRTYYADSVKGRFTISRDNAKNTVYVQMNSLKPEDTAVYYCNATRGQYVGRYYYWGQGTQVTVSW | high polyreactivity |
| QVQLVESGGGLVQAGGSLRLSCAASGRIFRGNAMGWYRQAPGKEREMVAAISRRSGSTYYADSVKGRFTISRDNAKNTVYLQMNSLKPEDTAVYYCAATSSLGDFRYDYWGQVTQVTVSS | high polyreactivity |
| QVQLVESGGGLVQAGGSLRLSCAASGRIFRGYAMGWYRPAPGKERELVAAINWSGGSTDYADSVKGRFTISRDYAKNTVYLQMNSLKPEDTAVYYCSTSTCRGYSWGHGTQVTVSS | high polyreactivity |
| QVQLVESGGGLVQAGGSLRLSCAASGRIFRGYAMGWYRQAPGKERELVAAISQSGSSTYYADSVKGRFTISRDNAKNTVYLQMNSLKPEDTAVYFCAVKYLKHFGYWGQGTQVTVSS | high polyreactivity |
